Data as given in the supplement of paper PMC10065799, “High-throughput profiling of sequence recognition by tyrosine kinases and SH2 domains using bacterial peptide display” (eLife, 2023).

What was measured:
[1] = test system: AncSZ; test: phosphorylation enrichment, bacterial display (enrichment ratio); higher = better substrate or ligand; peptides without Tyr show the background
[2] = molecular target: EPHB1 (UniProt P54762); test: as above
[3] = molecular target: EPHB2 (UniProt P29323); test: as above
[4] = molecular target: FGFR1 (UniProt P11362); test: as above
[5] = molecular target: FGFR3 (UniProt P22607); test: as above
[6] = test system: Fer (mouse); test: as above
[7] = molecular target: Fes (UniProt P07332); test: as above
[8] = molecular target: Fyn (UniProt P06241); test: as above
[9] = molecular target: Hck (UniProt P08631); test: as above
[10] = molecular target: Jak2 (UniProt O60674); test: as above
[11] = molecular target: MERTK (UniProt Q12866); test: as above
[12] = test system: c-Abl (mouse); test: as above
[13] = test system: c-Src; test: as above
[14] = molecular target: Grb2 SH2 (UniProt P62993); test: SH2 binding enrichment of the phosphorylated peptide, bacterial display (enrichment ratio); higher = better substrate or ligand; peptides without Tyr show the background
[15] = molecular target: SHP2-C SH2; test: as above
[16] = molecular target: c-Src SH2; test: as above
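For SH2 binding enrichment of the phosphorylated peptide, bacterial display in this document: peptide library displayed on the E. coli surface as eCPX fusions, selected cells deep-sequenced, score is each peptide's frequency after selection divided by its frequency in the input.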
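For phosphorylation enrichment, bacterial display in this document: 11-residue human phosphosite peptides and single-mutation variants displayed on the E. coli surface, counted by deep sequencing, each peptide's frequency after selection divided by its frequency in the unselected input library; frequency after pTyr selection over input frequency; kinase dosed for 20-30% of maximal phosphorylation in three min.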

Fyn, sequence (P06241 whole entry, looked up): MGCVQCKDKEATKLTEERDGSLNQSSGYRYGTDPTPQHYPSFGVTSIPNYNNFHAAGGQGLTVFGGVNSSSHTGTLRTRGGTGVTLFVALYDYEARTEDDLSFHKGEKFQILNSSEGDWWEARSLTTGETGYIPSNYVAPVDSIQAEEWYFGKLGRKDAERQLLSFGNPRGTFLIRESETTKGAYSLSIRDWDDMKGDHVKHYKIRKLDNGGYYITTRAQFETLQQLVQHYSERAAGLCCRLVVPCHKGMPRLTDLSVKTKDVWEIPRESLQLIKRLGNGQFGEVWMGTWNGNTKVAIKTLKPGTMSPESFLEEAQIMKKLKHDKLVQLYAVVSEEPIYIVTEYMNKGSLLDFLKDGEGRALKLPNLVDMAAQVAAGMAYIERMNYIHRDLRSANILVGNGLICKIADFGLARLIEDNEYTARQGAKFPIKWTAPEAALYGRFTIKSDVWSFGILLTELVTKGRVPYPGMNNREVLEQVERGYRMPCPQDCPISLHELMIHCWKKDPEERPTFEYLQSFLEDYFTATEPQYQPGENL
Fes, sequence (P07332 whole entry, looked up): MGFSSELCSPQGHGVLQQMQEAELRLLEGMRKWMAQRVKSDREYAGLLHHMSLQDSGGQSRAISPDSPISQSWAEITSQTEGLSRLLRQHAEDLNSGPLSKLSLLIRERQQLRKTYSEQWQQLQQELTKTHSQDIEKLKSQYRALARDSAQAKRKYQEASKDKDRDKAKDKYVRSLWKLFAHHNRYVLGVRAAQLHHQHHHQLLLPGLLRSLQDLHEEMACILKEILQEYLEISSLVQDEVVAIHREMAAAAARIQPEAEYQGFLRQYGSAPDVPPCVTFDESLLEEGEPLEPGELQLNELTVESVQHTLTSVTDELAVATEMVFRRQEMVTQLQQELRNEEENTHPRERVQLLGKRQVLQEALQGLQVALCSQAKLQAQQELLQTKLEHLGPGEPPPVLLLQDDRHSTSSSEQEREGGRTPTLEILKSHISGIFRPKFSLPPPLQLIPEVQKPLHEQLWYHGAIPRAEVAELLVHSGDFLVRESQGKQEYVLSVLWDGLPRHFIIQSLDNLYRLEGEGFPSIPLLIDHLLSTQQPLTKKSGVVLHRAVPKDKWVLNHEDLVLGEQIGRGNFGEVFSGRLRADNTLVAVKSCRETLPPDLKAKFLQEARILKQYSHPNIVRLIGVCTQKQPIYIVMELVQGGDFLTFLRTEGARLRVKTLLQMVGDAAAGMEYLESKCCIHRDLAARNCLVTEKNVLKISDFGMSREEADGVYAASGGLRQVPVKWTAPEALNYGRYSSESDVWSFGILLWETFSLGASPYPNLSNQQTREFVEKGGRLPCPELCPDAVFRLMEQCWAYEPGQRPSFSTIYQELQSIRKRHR
Jak2, sequence (O60674 whole entry, looked up): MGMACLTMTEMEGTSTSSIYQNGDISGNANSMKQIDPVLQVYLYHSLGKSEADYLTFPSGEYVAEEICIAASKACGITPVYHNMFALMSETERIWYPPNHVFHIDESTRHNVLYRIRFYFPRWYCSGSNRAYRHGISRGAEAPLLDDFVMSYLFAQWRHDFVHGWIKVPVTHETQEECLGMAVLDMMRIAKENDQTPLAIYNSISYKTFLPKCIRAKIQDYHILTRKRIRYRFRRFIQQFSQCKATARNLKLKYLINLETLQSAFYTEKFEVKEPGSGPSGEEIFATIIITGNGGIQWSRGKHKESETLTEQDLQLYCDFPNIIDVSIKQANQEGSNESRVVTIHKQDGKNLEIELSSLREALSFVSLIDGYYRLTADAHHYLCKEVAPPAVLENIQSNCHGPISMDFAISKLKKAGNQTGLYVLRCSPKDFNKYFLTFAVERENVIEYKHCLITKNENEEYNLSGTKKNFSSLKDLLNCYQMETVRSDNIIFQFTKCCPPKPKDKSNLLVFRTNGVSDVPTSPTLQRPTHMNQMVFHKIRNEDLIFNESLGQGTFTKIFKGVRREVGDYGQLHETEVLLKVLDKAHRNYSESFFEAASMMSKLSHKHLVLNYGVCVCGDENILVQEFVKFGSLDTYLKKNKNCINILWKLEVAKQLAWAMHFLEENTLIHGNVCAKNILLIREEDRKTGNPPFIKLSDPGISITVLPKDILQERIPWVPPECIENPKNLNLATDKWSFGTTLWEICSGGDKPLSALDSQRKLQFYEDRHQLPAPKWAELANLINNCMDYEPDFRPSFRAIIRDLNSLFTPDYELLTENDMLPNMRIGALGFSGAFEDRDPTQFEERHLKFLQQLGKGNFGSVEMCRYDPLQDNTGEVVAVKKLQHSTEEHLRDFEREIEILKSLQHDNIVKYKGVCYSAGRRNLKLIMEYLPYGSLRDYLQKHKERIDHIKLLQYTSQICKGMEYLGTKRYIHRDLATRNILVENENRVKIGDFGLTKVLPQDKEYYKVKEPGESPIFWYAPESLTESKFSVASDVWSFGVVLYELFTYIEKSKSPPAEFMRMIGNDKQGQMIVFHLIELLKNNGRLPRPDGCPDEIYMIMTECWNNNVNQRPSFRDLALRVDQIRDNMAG
Hck, sequence (P08631 whole entry, looked up): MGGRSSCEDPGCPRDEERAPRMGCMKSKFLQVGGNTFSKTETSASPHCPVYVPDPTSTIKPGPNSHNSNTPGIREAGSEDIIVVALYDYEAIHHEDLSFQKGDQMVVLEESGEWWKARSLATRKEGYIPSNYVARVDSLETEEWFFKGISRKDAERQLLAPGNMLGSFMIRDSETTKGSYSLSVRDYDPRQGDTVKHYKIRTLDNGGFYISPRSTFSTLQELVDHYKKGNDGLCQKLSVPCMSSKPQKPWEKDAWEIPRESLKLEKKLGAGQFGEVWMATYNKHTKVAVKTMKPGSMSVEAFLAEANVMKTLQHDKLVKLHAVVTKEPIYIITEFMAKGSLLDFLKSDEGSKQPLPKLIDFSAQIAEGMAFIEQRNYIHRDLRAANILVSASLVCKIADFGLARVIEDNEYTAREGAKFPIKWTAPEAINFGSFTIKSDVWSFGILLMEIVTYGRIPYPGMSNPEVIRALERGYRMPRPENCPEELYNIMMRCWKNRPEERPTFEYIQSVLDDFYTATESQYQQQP
FGFR3, sequence (P22607 whole entry, looked up): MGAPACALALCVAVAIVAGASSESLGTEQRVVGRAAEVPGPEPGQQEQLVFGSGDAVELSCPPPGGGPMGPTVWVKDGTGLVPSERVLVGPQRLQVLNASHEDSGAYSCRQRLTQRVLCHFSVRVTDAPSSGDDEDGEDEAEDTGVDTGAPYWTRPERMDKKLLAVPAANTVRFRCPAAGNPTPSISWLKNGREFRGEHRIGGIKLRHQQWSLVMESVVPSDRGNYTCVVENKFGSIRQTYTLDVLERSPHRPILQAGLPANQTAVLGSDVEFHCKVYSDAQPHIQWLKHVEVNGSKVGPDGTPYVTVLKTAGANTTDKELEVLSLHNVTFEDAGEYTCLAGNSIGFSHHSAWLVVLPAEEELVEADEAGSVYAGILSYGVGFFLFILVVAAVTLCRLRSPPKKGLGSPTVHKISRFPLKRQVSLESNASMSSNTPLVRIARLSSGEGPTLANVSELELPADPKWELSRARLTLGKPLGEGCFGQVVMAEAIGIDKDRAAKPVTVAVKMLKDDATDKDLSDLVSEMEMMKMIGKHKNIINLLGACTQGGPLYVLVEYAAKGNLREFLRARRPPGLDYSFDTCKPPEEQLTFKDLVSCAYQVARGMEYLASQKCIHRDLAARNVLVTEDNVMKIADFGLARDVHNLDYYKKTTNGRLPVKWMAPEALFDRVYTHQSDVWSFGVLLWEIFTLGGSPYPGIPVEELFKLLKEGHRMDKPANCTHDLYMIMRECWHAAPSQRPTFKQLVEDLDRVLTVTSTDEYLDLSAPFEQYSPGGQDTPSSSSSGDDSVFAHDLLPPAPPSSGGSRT
MERTK, sequence (Q12866 whole entry, looked up): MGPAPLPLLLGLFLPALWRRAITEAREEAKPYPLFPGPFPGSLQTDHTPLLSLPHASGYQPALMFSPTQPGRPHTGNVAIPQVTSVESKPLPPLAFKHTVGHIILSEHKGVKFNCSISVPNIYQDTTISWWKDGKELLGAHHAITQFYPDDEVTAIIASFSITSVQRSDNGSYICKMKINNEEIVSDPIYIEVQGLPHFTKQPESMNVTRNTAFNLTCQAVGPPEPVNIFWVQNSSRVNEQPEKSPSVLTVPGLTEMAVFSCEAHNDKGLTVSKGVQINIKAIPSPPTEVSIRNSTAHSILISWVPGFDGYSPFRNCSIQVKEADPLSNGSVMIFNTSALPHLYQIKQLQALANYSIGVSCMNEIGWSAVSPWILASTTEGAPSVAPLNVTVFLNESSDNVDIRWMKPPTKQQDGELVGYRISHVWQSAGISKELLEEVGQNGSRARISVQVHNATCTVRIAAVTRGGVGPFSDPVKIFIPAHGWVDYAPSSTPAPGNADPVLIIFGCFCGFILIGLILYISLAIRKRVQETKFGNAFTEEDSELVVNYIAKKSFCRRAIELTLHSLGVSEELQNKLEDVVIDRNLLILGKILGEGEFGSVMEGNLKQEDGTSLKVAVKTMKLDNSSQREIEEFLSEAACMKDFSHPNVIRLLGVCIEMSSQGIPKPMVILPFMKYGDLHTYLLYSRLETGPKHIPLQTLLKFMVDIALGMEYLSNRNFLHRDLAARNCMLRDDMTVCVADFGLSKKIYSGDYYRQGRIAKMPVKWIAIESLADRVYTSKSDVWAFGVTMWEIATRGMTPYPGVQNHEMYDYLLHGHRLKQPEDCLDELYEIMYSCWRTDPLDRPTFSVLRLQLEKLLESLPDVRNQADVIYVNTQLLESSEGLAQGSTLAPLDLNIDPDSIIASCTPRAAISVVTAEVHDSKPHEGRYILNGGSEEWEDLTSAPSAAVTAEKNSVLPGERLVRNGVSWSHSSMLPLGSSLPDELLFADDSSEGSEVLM
Grb2 SH2, sequence (P62993 whole entry, looked up): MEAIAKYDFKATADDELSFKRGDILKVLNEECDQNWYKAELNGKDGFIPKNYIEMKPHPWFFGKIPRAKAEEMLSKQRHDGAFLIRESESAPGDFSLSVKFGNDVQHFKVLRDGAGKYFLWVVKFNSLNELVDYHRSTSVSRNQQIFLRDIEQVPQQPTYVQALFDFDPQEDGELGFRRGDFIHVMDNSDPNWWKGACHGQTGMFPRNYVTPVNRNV

| Sequence | phosphorylation enrichment [1] | phosphorylation enrichment [2] | phosphorylation enrichment [3] | phosphorylation enrichment [4] | phosphorylation enrichment [5] | phosphorylation enrichment [6] | phosphorylation enrichment [7] | phosphorylation enrichment [8] | phosphorylation enrichment [9] | phosphorylation enrichment [10] | phosphorylation enrichment [11] | phosphorylation enrichment [12] | phosphorylation enrichment [13] | SH2 binding enrichment [14] | SH2 binding enrichment [15] | SH2 binding enrichment [16] |
| --- | --- | --- | --- | --- | --- | --- | --- | --- | --- | --- | --- | --- | --- | --- | --- | --- |
| PGIRMYRVQFN [LRFN1_Y454_Q455R_YF] | 1.35 | 0.468 | 0.642 | 0.622 | 0.618 | 0.611 | 1.14 | 0.656 | 0.485 | 0.844 | 0.652 | 0.512 | 0.607 | 0.796 | 0.606 | 0.469 |
| PGVDIYVSPNM [PADI3_Y51_I52V] | 1.37 | 1.17 | 1.46 | 0.809 | 0.781 | 0.708 | 1.71 | 1.52 | 2.76 | 1.24 | 0.629 | 2.3 | 0.885 | 0.804 | 0.555 | 0.524 |
| PICEGYALPHA [ACTC1_Y171_Y168C] | 0.946 | 0.488 | 0.587 | 0.682 | 0.598 | 0.577 | 0.804 | 0.707 | 0.535 | 0.453 | 0.445 | 0.897 | 0.406 | 0.951 | 0.918 | 4.74 |
| PIGRKYKKVRF [F8_Y442_R437P] | 0.828 | 0.557 | 0.597 | 0.577 | 0.368 | 0.459 | 0.54 | 0.763 | 0.553 | 0.545 | 0.498 | 0.661 | 0.587 | 0.653 | 0.648 | 0.568 |
| PIPAAYNRYDQ [CDC73_Y290] | 0.71 | 0.433 | 0.571 | 0.541 | 0.621 | 0.593 | 0.751 | 0.736 | 0.507 | 0.416 | 0.263 | 0.572 | 0.342 | 0.75 | 0.559 | 0.5 |
| PLDGEYLTLQI [TP53_Y327_F328L] | 2.75 | 1.46 | 1.23 | 1.64 | 2.15 | 1.08 | 2.31 | 1.08 | 0.927 | 2.48 | 0.764 | 2.16 | 1.14 | 0.522 | 0.555 | 0.504 |
| PLRAFYLIARV [HLCS_Y635_D634Y_YF] | 3.67 | 1.02 | 1.46 | 1.07 | 1.84 | 1.26 | 4.68 | 0.92 | 0.866 | 5.18 | 1.33 | 3.67 | 2.27 | 0.996 | 0.738 | 0.6 |
| PMQMPYDSRWE [PDGFRA_Y582_L580M] | 1.52 | 0.835 | 0.801 | 0.865 | 1.1 | 0.671 | 1.47 | 0.374 | 0.794 | 2.03 | 0.728 | 1.96 | 1.49 | 0.615 | 0.721 | 0.601 |
| PPQFSYGLQTQ [SRA1_Y35] | 0.466 | 0.333 | 0.584 | 0.586 | 0.308 | 0.286 | 0.604 | 0.346 | 0.443 | 0.433 | 0.467 | 0.483 | 0.426 | 0.97 | 0.544 | 0.425 |
| PPVVNYEQDAR [FER_Y402_E404Q] | 1.33 | 1.01 | 0.534 | 0.69 | 1.29 | 0.679 | 1.18 | 0.636 | 0.628 | 1.49 | 0.541 | 0.767 | 0.646 | 0.879 | 0.826 | 0.728 |
| PQAVRYIYTID [DCX_Y103_G100A] | 1.12 | 0.74 | 0.722 | 0.723 | 0.74 | 0.67 | 1.42 | 7.37 | 3.66 | 0.983 | 1.72 | 1.01 | 6.46 | 0.882 | 17.1 | 0.644 |
| PQDVTYAQLHS [LILRB4_Y412] | 0.959 | 1.22 | 0.999 | 0.351 | 0.75 | 0.685 | 1.22 | 4.37 | 6.52 | 0.786 | 0.645 | 0.815 | 2.8 | 0.56 | 1.52 | 0.973 |
| PSDLLYIPDIQ [ITGA2B_Y845_L847P] | 2 | 1.35 | 1.1 | 1.21 | 1.37 | 0.494 | 1.77 | 0.917 | 0.921 | 2 | 0.953 | 1.89 | 0.808 | 0.847 | 0.288 | 0.539 |
| PSELFYSKISP [SMG1_Y2254_G2258S_YF] | 1.15 | 1.59 | 1.52 | 3.79 | 2.72 | 11.3 | 0.972 | 2.06 | 8.64 | 2.3 | 13.6 | 3.5 | 3.48 | 0.854 | 3.93 | 3.17 |
| PSGPTYRGAVP [ASAH1_Y43] | 0.772 | 0.757 | 0.509 | 0.58 | 0.503 | 0.417 | 0.698 | 0.602 | 0.583 | 0.611 | 0.58 | 0.489 | 0.878 | 0.876 | 0.74 | 0.519 |
| PSPMPYASCQM [FOXL2_Y215] | 1.28 | 0.631 | 0.65 | 0.671 | 0.625 | 1 | 1.07 | 0.519 | 0.661 | 0.98 | 0.608 | 0.666 | 0.865 | 0.688 | 0.848 | 1.24 |
| PSRKDYETFQS [CTNND2_Y1154_P1159S_YF] | 0.853 | 0.91 | 0.792 | 0.769 | 0.751 | 0.518 | 0.977 | 0.845 | 0.54 | 0.553 | 0.614 | 1.94 | 0.729 | 0.76 | 0.55 | 0.439 |
